Assay results: article PMC6477152 (2019)

B1: FIP200ΔN1115:Luciferase [human] / GST:NAP1aa5–75 [human] (parent complex)
chain 1: ENYQVGLAELRTLMTIEKDQCISELISRHEEESNILKAELNKVTSLHNQAFEIEKNLKEQIIELQSKLDSELSALERQKDEKITQQEEKYEAIIQNLEKDRQKLVSSQEQDREQLIQKLNCEKDEAIQTALKEFKLEREVVEKELLEKVKHLENQIAKSPAIDSTRGDSSSLVAELQEKLQEEKAKFLEQLEEQEKRKNEEMQNVRTSLIAEQQTNFNTVLTREKMRKENIINDLSDKLKSTMQQQERDKDLIESLSEDRARLLEEKKKLEEEVSKLRSSSFVPSPYVATAPELYGACAPELPGESDRSAVETADEGRVDSAMETSMMSVQENIHMLSEEKQRIMLLERTLQLKEEENKRLNQRLMSQSMSSVSSRHSEKIAIRDFQVGDLVLIILDERHDNYVLFTVSPTLYFLHSESLPALDLKPGEGASGASRRPWVLGKVMEKEYCQAKKAQNRFKVPLGTKFYRVKAVSWNKKV
chain 2: VEDDICILNHEKAHKRDTVTPVSIYSGDESVASHFALVTAYEDIKKRLKDSEKENSLLKKRIRFLEEKLIA
B2: FIP200ΔN1115:Luciferase [human] / GST:NDP52 [human] (parent complex)
chain 1: B1 chain 1
chain 2: MEETIKDPPTSAVLLDHCHFSQVIFNSVEKFYIPGGDVTCHYTFTQHFIPRRKDWIGIFRVGWKTTREYYTFMWVTLPIDLNNKSAKQQEVQFKAYYLPKDDEYYQFCYVDEDGVVRGASIPFQFRPENEEDILVVTTQGEVEEIEQHNKELCKENQELKDSCISLQKQNSDMQAELQKKQEELETLQSINKKLELKVKEQKDYWETELLQLKEQNQKMSSENEKMGIRVDQLQAQLSTQEKEMEKLVQGDQDKTEQLEQLKKENDHLFLSLTEQRKDQKKLEQTVEQMKQNETTAMKKQQELMDENFDLSKRLSENEIICNALQRQKERLEGENDLLKRENSRLLSYMGLDFNSLPYQVPTSDEGGARQNPGLAYGNPYSGIQESSSPSPLSIKKCPICKADDICDHTLEQQQMQPLCFNCPICDKIFPATEKQIFEDHVFCHSL
B3: FIP200ΔN1115:Luciferase [human] / GST:SINTBADaa5-85 [human] (parent complex)
chain 1: B1 chain 1
chain 2: FEDDISILTQEALGPSEVWLDSPGDPSLGGDMCSASHFALITAYGDIKERLGGLERENATLRRRLKVYEIKYPLISDFGEE

Variants of: B1
Assay: LUMIER assay; HEK293ET cell lysates; read off a plot

Variant | response
chain 1 ENYQVGLAELRTLMTIEKDQCISELISRHEEESNILKAELNKVTSLHNQAFEIEKNLKEQIIELQSKLDSELSALERQKDEKITQQEEKYEAIIQNLEKDRQKLVSSQEQDREQLIQKLNCEKDEAIQTALKEFKLEREVVEKELLEKVKHLENQIAKSPAIDSTRGDSSSLVAELQEKLQEEKAKFLEQLEEQEKRKNEEMQNVRTSLIAEQQTNFNTVLTREKMRKENIINDLSDKLKSTMQQQERDKDLIESLSEDRARLLEEKKKLEEEVSKLRSSSFVPSPYVATAPELYGACAPELPGESDRSAVETADEGRVDSAMETSMMSVQENIHMLSEEKQRIMLLERTLQLKEEENKRLNQRLMSQSMSSVSSRHSEKIAIRDFQVGDLVLIILDERHDNYVLFTVSPTLYFLHSESLPALDLKPGEGASGASRRPWVLGKVMEKEYCQSKKAQNRFKVPLGTKFYRVKAVSWNKKV [chain 1 A452S] | ~12 fold binding
chain 1 ENYQVGLAELRTLMTIEKDQCISELISRHEEESNILKAELNKVTSLHNQAFEIEKNLKEQIIELQSKLDSELSALERQKDEKITQQEEKYEAIIQNLEKDRQKLVSSQEQDREQLIQKLNCEKDEAIQTALKEFKLEREVVEKELLEKVKHLENQIAKSPAIDSTRGDSSSLVAELQEKLQEEKAKFLEQLEEQEKRKNEEMQNVRTSLIAEQQTNFNTVLTREKMRKENIINDLSDKLKSTMQQQERDKDLIESLSEDRARLLEEKKKLEEEVSKLRSSSFVPSPYVATAPELYGACAPELPGESDRSAVETADEGRVDSAMETSMMSVQENIHMLSEEKQRIMLLERTLQLKEEENKRLNQRLMSQSMSSVSSRHSEKIAIRDFQVGDLVLIILDERHDNYVLFTVSPTLYFLHSESLPALDLKPGEGASGASRRPWVLGKVMEKEYCQAKKAQSRFKVPLGTKFYRVKAVSWNKKV [chain 1 N457S] | ~1.4 fold binding
chain 1 ENYQVGLAELRTLMTIEKDQCISELISRHEEESNILKAELNKVTSLHNQAFEIEKNLKEQIIELQSKLDSELSALERQKDEKITQQEEKYEAIIQNLEKDRQKLVSSQEQDREQLIQKLNCEKDEAIQTALKEFKLEREVVEKELLEKVKHLENQIAKSPAIDSTRGDSSSLVAELQEKLQEEKAKFLEQLEEQEKRKNEEMQNVRTSLIAEQQTNFNTVLTREKMRKENIINDLSDKLKSTMQQQERDKDLIESLSEDRARLLEEKKKLEEEVSKLRSSSFVPSPYVATAPELYGACAPELPGESDRSAVETADEGRVDSAMETSMMSVQENIHMLSEEKQRIMLLERTLQLKEEENKRLNQRLMSQSMSSVSSRHSEKIAIRDFQVGDLVLIILDERHDNYVLFTVSPTLYFLHSESLPALDLKPGEGASGASRRPWVLGKVMEKEYCQAKKAQNRSKVPLGTKFYRVKAVSWNKKV [chain 1 F459S] | ~1.4 fold binding
chain 1 ENYQVGLAELRTLMTIEKDQCISELISRHEEESNILKAELNKVTSLHNQAFEIEKNLKEQIIELQSKLDSELSALERQKDEKITQQEEKYEAIIQNLEKDRQKLVSSQEQDREQLIQKLNCEKDEAIQTALKEFKLEREVVEKELLEKVKHLENQIAKSPAIDSTRGDSSSLVAELQEKLQEEKAKFLEQLEEQEKRKNEEMQNVRTSLIAEQQTNFNTVLTREKMRKENIINDLSDKLKSTMQQQERDKDLIESLSEDRARLLEEKKKLEEEVSKLRSSSFVPSPYVATAPELYGACAPELPGESDRSAVETADEGRVDSAMETSMMSVQENIHMLSEEKQRIMLLERTLQLKEEENKRLNQRLMSQSMSSVSSRHSEKIAIRDFQVGDLVLIILDERHDNYVLFTVSPTLYFLHSESLPALDLKPGEGASGASRRPWVLGKVMEKEYCQAKKAQNRFKSPLGTKFYRVKAVSWNKKV [chain 1 V461S] | ~1.7 fold binding

Variants of: B2
Assay: LUMIER assay; HEK293ET cell lysates; bacterially expressed GST bait; read off a plot

Variant | response
chain 1 ENYQVGLAELRTLMTIEKDQCISELISRHEEESNILKAELNKVTSLHNQAFEIEKNLKEQIIELQSKLDSELSALERQKDEKITQQEEKYEAIIQNLEKDRQKLVSSQEQDREQLIQKLNCEKDEAIQTALKEFKLEREVVEKELLEKVKHLENQIAKSPAIDSTRGDSSSLVAELQEKLQEEKAKFLEQLEEQEKRKNEEMQNVRTSLIAEQQTNFNTVLTREKMRKENIINDLSDKLKSTMQQQERDKDLIESLSEDRARLLEEKKKLEEEVSKLRSSSFVPSPYVATAPELYGACAPELPGESDRSAVETADEGRVDSAMETSMMSVQENIHMLSEEKQRIMLLERTLQLKEEENKRLNQRLMSQSMSSVSSRHSEKIAIRDFQVGDLVLIILDERHDNYVLFTVSPTLYFLHSESLPALDLKPGEGASGASRRPWVLGKVMEKEYCQAKKAQNRFKSPLGTKFYRVKAVSWNKKV [chain 1 V461S] | ~50 fold binding
chain 1 ENYQVGLAELRTLMTIEKDQCISELISRHEEESNILKAELNKVTSLHNQAFEIEKNLKEQIIELQSKLDSELSALERQKDEKITQQEEKYEAIIQNLEKDRQKLVSSQEQDREQLIQKLNCEKDEAIQTALKEFKLEREVVEKELLEKVKHLENQIAKSPAIDSTRGDSSSLVAELQEKLQEEKAKFLEQLEEQEKRKNEEMQNVRTSLIAEQQTNFNTVLTREKMRKENIINDLSDKLKSTMQQQERDKDLIESLSEDRARLLEEKKKLEEEVSKLRSSSFVPSPYVATAPELYGACAPELPGESDRSAVETADEGRVDSAMETSMMSVQENIHMLSEEKQRIMLLERTLQAKEEENKRLNQRLMSQSMSSVSSRHSEKIAIRDFQVGDLVLIILDERHDNYVLFTVSPTLYFLHSESLPALDLKPGEGASGASRRPWVLGKVMEKEYCQAKKAQNRFKVPLGTKFYRVKAVSWNKKV [chain 1 L353A] | ~32 fold binding

Variants of: B3
Assay: as above

Variant | response
chain 1 ENYQVGLAELRTLMTIEKDQCISELISRHEEESNILKAELNKVTSLHNQAFEIEKNLKEQIIELQSKLDSELSALERQKDEKITQQEEKYEAIIQNLEKDRQKLVSSQEQDREQLIQKLNCEKDEAIQTALKEFKLEREVVEKELLEKVKHLENQIAKSPAIDSTRGDSSSLVAELQEKLQEEKAKFLEQLEEQEKRKNEEMQNVRTSLIAEQQTNFNTVLTREKMRKENIINDLSDKLKSTMQQQERDKDLIESLSEDRARLLEEKKKLEEEVSKLRSSSFVPSPYVATAPELYGACAPELPGESDRSAVETADEGRVDSAMETSMMSVQENIHMLSEEKQRIMLLERTLQAKEEENKRLNQRLMSQSMSSVSSRHSEKIAIRDFQVGDLVLIILDERHDNYVLFTVSPTLYFLHSESLPALDLKPGEGASGASRRPWVLGKVMEKEYCQAKKAQNRFKVPLGTKFYRVKAVSWNKKV [chain 1 L353A] | ~170 fold binding
chain 1 ENYQVGLAELRTLMTIEKDQCISELISRHEEESNILKAELNKVTSLHNQAFEIEKNLKEQIIELQSKLDSELSALERQKDEKITQQEEKYEAIIQNLEKDRQKLVSSQEQDREQLIQKLNCEKDEAIQTALKEFKLEREVVEKELLEKVKHLENQIAKSPAIDSTRGDSSSLVAELQEKLQEEKAKFLEQLEEQEKRKNEEMQNVRTSLIAEQQTNFNTVLTREKMRKENIINDLSDKLKSTMQQQERDKDLIESLSEDRARLLEEKKKLEEEVSKLRSSSFVPSPYVATAPELYGACAPELPGESDRSAVETADEGRVDSAMETSMMSVQENIHMLSEEKQRIMLAERTLQLKEEENKRLNQRLMSQSMSSVSSRHSEKIAIRDFQVGDLVLIILDERHDNYVLFTVSPTLYFLHSESLPALDLKPGEGASGASRRPWVLGKVMEKEYCQAKKAQNRFKVPLGTKFYRVKAVSWNKKV [chain 1 L347A] | ~99 fold binding
chain 1 ENYQVGLAELRTLMTIEKDQCISELISRHEEESNILKAELNKVTSLHNQAFEIEKNLKEQIIELQSKLDSELSALERQKDEKITQQEEKYEAIIQNLEKDRQKLVSSQEQDREQLIQKLNCEKDEAIQTALKEFKLEREVVEKELLEKVKHLENQIAKSPAIDSTRGDSSSLVAELQEKLQEEKAKFLEQLEEQEKRKNEEMQNVRTSLIAEQQTNFNTVLTREKMRKENIINDLSDKLKSTMQQQERDKDLIESLSEDRARLLEEKKKLEEEVSKLRSSSFVPSPYVATAPELYGACAPELPGESDRSAVETADEGRVDSAMETSMMSVQENIHMLSEEKQRIMLLERALQLKEEENKRLNQRLMSQSMSSVSSRHSEKIAIRDFQVGDLVLIILDERHDNYVLFTVSPTLYFLHSESLPALDLKPGEGASGASRRPWVLGKVMEKEYCQAKKAQNRFKVPLGTKFYRVKAVSWNKKV [chain 1 T350A] | ~180 fold binding
chain 1 ENYQVGLAELRTLMTIEKDQCISELISRHEEESNILKAELNKVTSLHNQAFEIEKNLKEQIIELQSKLDSELSALERQKDEKITQQEEKYEAIIQNLEKDRQKLVSSQEQDREQLIQKLNCEKDEAIQTALKEFKLEREVVEKELLEKVKHLENQIAKSPAIDSTRGDSSSLVAELQEKLQEEKAKFLEQLEEQEKRKNEEMQNVRTSLIAEQQTNFNTVLTREKMRKENIINDLSDKLKSTMQQQERDKDLIESLSEDRARLLEEKKKLEEEVSKLRSSSFVPSPYVATAPELYGACAPELPGESDRSAVETADEGRVDSAMETSMMSVQENIHMLSEEKQRIMLLARTLQLKEEENKRLNQRLMSQSMSSVSSRHSEKIAIRDFQVGDLVLIILDERHDNYVLFTVSPTLYFLHSESLPALDLKPGEGASGASRRPWVLGKVMEKEYCQAKKAQNRFKVPLGTKFYRVKAVSWNKKV [chain 1 E348A] | ~200 fold binding
chain 1 ENYQVGLAELRTLMTIEKDQCISELISRHEEESNILKAELNKVTSLHNQAFEIEKNLKEQIIELQSKLDSELSALERQKDEKITQQEEKYEAIIQNLEKDRQKLVSSQEQDREQLIQKLNCEKDEAIQTALKEFKLEREVVEKELLEKVKHLENQIAKSPAIDSTRGDSSSLVAELQEKLQEEKAKFLEQLEEQEKRKNEEMQNVRTSLIAEQQTNFNTVLTREKMRKENIINDLSDKLKSTMQQQERDKDLIESLSEDRARLLEEKKKLEEEVSKLRSSSFVPSPYVATAPELYGACAPELPGESDRSAVETADEGRVDSAMETSMMSVQENIHMLSEEKQRIMLLERTAQLKEEENKRLNQRLMSQSMSSVSSRHSEKIAIRDFQVGDLVLIILDERHDNYVLFTVSPTLYFLHSESLPALDLKPGEGASGASRRPWVLGKVMEKEYCQAKKAQNRFKVPLGTKFYRVKAVSWNKKV [chain 1 L351A] | ~110 fold binding
chain 1 ENYQVGLAELRTLMTIEKDQCISELISRHEEESNILKAELNKVTSLHNQAFEIEKNLKEQIIELQSKLDSELSALERQKDEKITQQEEKYEAIIQNLEKDRQKLVSSQEQDREQLIQKLNCEKDEAIQTALKEFKLEREVVEKELLEKVKHLENQIAKSPAIDSTRGDSSSLVAELQEKLQEEKAKFLEQLEEQEKRKNEEMQNVRTSLIAEQQTNFNTVLTREKMRKENIINDLSDKLKSTMQQQERDKDLIESLSEDRARLLEEKKKLEEEVSKLRSSSFVPSPYVATAPELYGACAPELPGESDRSAVETADEGRVDSAMETSMMSVQENIHMLSEEKQRIMLLEATLQLKEEENKRLNQRLMSQSMSSVSSRHSEKIAIRDFQVGDLVLIILDERHDNYVLFTVSPTLYFLHSESLPALDLKPGEGASGASRRPWVLGKVMEKEYCQAKKAQNRFKVPLGTKFYRVKAVSWNKKV [chain 1 R349A] | ~170 fold binding
